B1: RSAD1 (parent)
chain: YCNFNKYIPRRLEEAAMQKCLVTE
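Also: lentivirally expressed fusions sorted by FACS into six bins by GFP to DsRed ratio, PSI derived from sequencing read proportions per bin multiplied by bin number.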

Variants of: B1
Assay: protein stability index of a GFP-peptide fusion (GPS, HEK-293T) (PSI 1-6); higher = more stable
Conditions: c terminus: a fixed tail appended
With YCNFNKYIPRRLEEATMQKCLVTE [A16T] the protein stability index was 2.39.
With YCNFNKYIPRRLEEAAMQKCLVNE [T23N] the protein stability index was 2.85.
Variant YCNFNKYIPRRLEEALMQKCLVTE [A16L] has a protein stability index of 1.41.
YCNFNKYIPRREEEAAMQKCLVTE [L12E] showed a protein stability index of 2.46.
In the case of YCNFNKYAPRRLEEAAMQKCLVTE [I8A], the protein stability index is reported as 1.69.
For YCNFNKYIPRRLEEAAMQKILVTE [C20I], the protein stability index was 3.05.
In the case of YCNFNKYIPRRLEEAANQKCLVTE [M17N], the protein stability index is reported as 2.11.
With LCNFNKYIPRRLEEAAMQKCLVTE [Y1L] the protein stability index was 2.72.
YCNFNKYIPRRLEEAAMQKCLVTF [E24F] gave a protein stability index of 2.77.
Variant YKNFNKYIPRRLEEAAMQKCLVTE [C2K] has a protein stability index of 2.31.
In the case of YCNFNKYIPRRLEEASMQKCLVTE [A16S], the protein stability index is reported as 2.56.
Variant YCNFNKYIPRRLLEAAMQKCLVTE [E13L] has a protein stability index of 2.16.
For YCNFNKYIPRRLEEAAMQKCLVRE [T23R], the protein stability index was 1.78.
For YCNFNKYIPRRLEEAAMQKCLVHE [T23H], the protein stability index was 2.92.
With YCNFNKYLPRRLEEAAMQKCLVTE [I8L] the protein stability index was 2.05.
For YCNFNKYIPRRLEEAAMQECLVTE [K19E], the protein stability index was 2.71.
Work on YCNFNKYIPRRLEEAAMRKCLVTE [Q18R] yielded a protein stability index of 2.03.
Variant YCNFNKYIPRRLEEAWMQKCLVTE [A16W] has a protein stability index of 1.79.
For YCNFNKYIPRRLEEAAMQKCLHTE [V22H], the protein stability index was 2.78.
YCNFNKYIPRRLEEKAMQKCLVTE [A15K] gave a protein stability index of 1.69.
With YCNFHKYIPRRLEEAAMQKCLVTE [N5H] the protein stability index was 2.31.
With YCNFNKYIPRRLEEAAMQKCLVLE [T23L] the protein stability index was 1.91.
In the case of YCNFNWYIPRRLEEAAMQKCLVTE [K6W], the protein stability index is reported as 2.56.
In the case of KCNFNKYIPRRLEEAAMQKCLVTE [Y1K], the protein stability index is reported as 2.63.
With YCNFNKYIPRDLEEAAMQKCLVTE [R11D] the protein stability index was 1.84.
With YCNFNKYIPRRLEEAAMQKCLVTR [E24R] the protein stability index was 2.32.
Variant YCNFNKYIPRRLEQAAMQKCLVTE [E14Q] has a protein stability index of 2.85.
In the case of YWNFNKYIPRRLEEAAMQKCLVTE [C2W], the protein stability index is reported as 1.82.
In the case of YCGFNKYIPRRLEEAAMQKCLVTE [N3G], the protein stability index is reported as 2.94.
Work on YCNFNKYIPRRDEEAAMQKCLVTE [L12D] yielded a protein stability index of 2.19.
In the case of YCNFNKYIPRKLEEAAMQKCLVTE [R11K], the protein stability index is reported as 2.14.
YYNFNKYIPRRLEEAAMQKCLVTE [C2Y] showed a protein stability index of 1.89.
Variant YCNFNKYIPRRLEEAAMQKCLVAE [T23A] has a protein stability index of 1.9.
YCNFFKYIPRRLEEAAMQKCLVTE [N5F] showed a protein stability index of 1.25.
Work on YCNYNKYIPRRLEEAAMQKCLVTE [F4Y] yielded a protein stability index of 2.23.
In the case of YCMFNKYIPRRLEEAAMQKCLVTE [N3M], the protein stability index is reported as 2.24.
YCNFNKYIPRRLEEAAMQKKLVTE [C20K] gave a protein stability index of 2.11.
YCNFNKYIPRRWEEAAMQKCLVTE [L12W] showed a protein stability index of 4.96.
YCNFNKYIPQRLEEAAMQKCLVTE [R10Q] gave a protein stability index of 1.96.
Work on YCNFNKYIPRRLEEMAMQKCLVTE [A15M] yielded a protein stability index of 2.14.
With YCNFNKYIPRRLEEAAMQKCLVTQ [E24Q] the protein stability index was 2.38.
Work on YCNFNKYIPRRLEEAAMQYCLVTE [K19Y] yielded a protein stability index of 2.31.
Variant YCNFNKYIPRRQEEAAMQKCLVTE [L12Q] has a protein stability index of 4.
In the case of YHNFNKYIPRRLEEAAMQKCLVTE [C2H], the protein stability index is reported as 3.01.
YCNFNKYIVRRLEEAAMQKCLVTE [P9V] showed a protein stability index of 2.71.
Work on YCNFNKYIPPRLEEAAMQKCLVTE [R10P] yielded a protein stability index of 1.74.
For YCNFNKYIPRRLEEAAMQHCLVTE [K19H], the protein stability index was 1.7.
In the case of YCNFNKYHPRRLEEAAMQKCLVTE [I8H], the protein stability index is reported as 2.58.
In the case of YCNFNKYIPRRLEEAAMQKHLVTE [C20H], the protein stability index is reported as 2.31.
Work on YCNFNKYIPRRLEEANMQKCLVTE [A16N] yielded a protein stability index of 3.66.
YCNFNKYIPRRLEEAAMQKCLVSE [T23S] showed a protein stability index of 1.93.
YCNFNKYIPRRLHEAAMQKCLVTE [E13H] gave a protein stability index of 3.29.
Work on YCNFNKYIPWRLEEAAMQKCLVTE [R10W] yielded a protein stability index of 3.64.
With YCFFNKYIPRRLEEAAMQKCLVTE [N3F] the protein stability index was 2.4.
In the case of YCNFNKYIPRRLENAAMQKCLVTE [E14N], the protein stability index is reported as 3.14.
YCNFNKYIPCRLEEAAMQKCLVTE [R10C] gave a protein stability index of 3.8.
YCNFNKYIPRRLCEAAMQKCLVTE [E13C] showed a protein stability index of 1.99.
Variant HCNFNKYIPRRLEEAAMQKCLVTE [Y1H] has a protein stability index of 2.94.
In the case of YCNFNKYIPRRLELAAMQKCLVTE [E14L], the protein stability index is reported as 2.34.
Variant YCNFNKYIPRRLEEAAVQKCLVTE [M17V] has a protein stability index of 2.
For YCNFNKYIPRRLEEAAMQKCLVTP [E24P], the protein stability index was 2.28.
With YCNFNKYIPRRLEEAAMQKCCVTE [L21C] the protein stability index was 2.15.
With YCNFNKYIPRRLEEAAIQKCLVTE [M17I] the protein stability index was 2.82.
In the case of YCNFNKYIPRRLEEAALQKCLVTE [M17L], the protein stability index is reported as 1.96.
TCNFNKYIPRRLEEAAMQKCLVTE [Y1T] gave a protein stability index of 2.38.
YCNFNKYIPNRLEEAAMQKCLVTE [R10N] gave a protein stability index of 2.33.
YCNFNKYIPRRLEEAAMQKCLVTA [E24A] gave a protein stability index of 3.14.
In the case of YCNFNKYIPRRLEEAAMQKCLVWE [T23W], the protein stability index is reported as 2.85.
In the case of YCNFNKYIPRRLFEAAMQKCLVTE [E13F], the protein stability index is reported as 2.34.
Work on YCNFNKYIPRCLEEAAMQKCLVTE [R11C] yielded a protein stability index of 2.17.
With YCNFNDYIPRRLEEAAMQKCLVTE [K6D] the protein stability index was 2.9.
Variant YCNFNKYIPRRLEEAAEQKCLVTE [M17E] has a protein stability index of 2.44.
Work on YCNFNKYIPSRLEEAAMQKCLVTE [R10S] yielded a protein stability index of 1.48.
With YCNFNKYIPRRLEEARMQKCLVTE [A16R] the protein stability index was 2.39.
For YCNFNKYIPRILEEAAMQKCLVTE [R11I], the protein stability index was 3.24.
Work on YCLFNKYIPRRLEEAAMQKCLVTE [N3L] yielded a protein stability index of 1.66.
YCNFNKYIPTRLEEAAMQKCLVTE [R10T] gave a protein stability index of 1.59.
With YCNFNKYIPRRLEEAAMQKCLVTV [E24V] the protein stability index was 1.9.
YCNFNAYIPRRLEEAAMQKCLVTE [K6A] gave a protein stability index of 2.11.
Work on YCNFNKYIPRRLEELAMQKCLVTE [A15L] yielded a protein stability index of 2.23.
In the case of YCNFNKYIPRRLAEAAMQKCLVTE [E13A], the protein stability index is reported as 2.63.
In the case of YCNFNKYIPRRLEEAAMQICLVTE [K19I], the protein stability index is reported as 2.25.
With YCNFNKYIPRRLEEAAMQKCLVTI [E24I] the protein stability index was 2.83.
With YCNFNKYIHRRLEEAAMQKCLVTE [P9H] the protein stability index was 2.14.
With YCNFNKYIPRRLEEAAMQKCLVTY [E24Y] the protein stability index was 2.16.
YCNFNKYIPRRLEEAAYQKCLVTE [M17Y] showed a protein stability index of 2.85.
Variant YCNFNKYIPRRLIEAAMQKCLVTE [E13I] has a protein stability index of 1.66.
With YCNFNKRIPRRLEEAAMQKCLVTE [Y7R] the protein stability index was 2.31.
Work on YCNFNKYIPRRLPEAAMQKCLVTE [E13P] yielded a protein stability index of 3.17.
Work on YCNFNKYIPRRLEEAAMQKCLVDE [T23D] yielded a protein stability index of 1.78.
Work on YCNFNKYIPRRLEEAAMIKCLVTE [Q18I] yielded a protein stability index of 2.76.
YCNFNKYIPRRLEEAAMQKVLVTE [C20V] showed a protein stability index of 1.89.
YCHFNKYIPRRLEEAAMQKCLVTE [N3H] showed a protein stability index of 2.74.
Variant YCNFNKYIPRALEEAAMQKCLVTE [R11A] has a protein stability index of 3.42.
